Laboratory results taken from the DeepSol protein solubility set.

Assay: soluble on expression in E. coli; label from the status in PepcDB or PDB records

| Sequence | soluble on expression in E. coli |
| --- | --- |
| MWWREKLFDGLRALELTKKTLKNKKERESMNQEELDKKLKKQEILVKDEKVWSYTYEDHISSIVKEAEKKGSFDHLPGKGKPLNLDKDLSYNPEKQLYRTLKNNHVLPRWIELSKEIDDLKEKLKENTNTAETADLIRTINKKVLEHNLLCPPSAQKTRVKTDFLEHHHHHH | soluble |
| MYCHAKLKNISQHTVISAHLFLPDYSPMNRDSFYPAIACFPLLLMLAGCAPMHETRQALSQQTPAAQVDTALPTALKMVGQTANGGWSITIINSLPLEHHHHHH | not soluble |
| MYDFKKINNLRGIERETLRVTDCGNLATSNHPDGLGHKLTNNSITVDFSENLLELITKPHDSIDKAIGELYQLSAFTLDNMHSDEIILNTSMPLSANDNDIQEADFGSSNSGRMKRVYRKGLSARYGKIMQIISGIHYNFSFDKDLISNIATNKQVSISDIYFDVLNNYFEFMWLLPYLFGASPICAKTSVKNKPDYLSVLDDKFYVGEYATSLRMSDLGYTSPAQKDLAISYDNVKAYVKDLIQATDDTFADYKRIGLYNSQGQRIQLNDGILQIENEYYSAIRPKQIAKRGERPACALYNRGVEYVEVRVLDVDPFEPVGISKDTALFVEVMLMTCLDKDAKKYHKDIIKQAKQNLTAVAIQGRNPQLKLKKLDDDSEILLKDYALELFDEIEAVAKKMPKEYLDAVEIQKRKVLDISQTPSAKIIELARQHGYKKFILDISRRVSQQFRSYELPAAIVAKLKDQAGQSVAAEKELVANDKISLDEYINRYYKSSKGCC | not soluble |
| MYDVVVVGAGPAGSRYARQAASRGLDVVVFEQGEIGKPLACSGHVSTDIWEFTEDARDELFQNEISGARFHTGGPGSQDHPFYKDEVISNVIDRVGLDKHLAGLARDAGADVREAHSVVGVTEDRDGVTVEVRGDDGVETHRAKMVAGCDGPKSRVRRELDLPEPDELLHGVLGFSDEVDHGDFVDVHLTVPRFFAWRIPRGEAGVEYGLAVPPGDDARGRFEEFVDGYGVETDHRCSGLIPIGPPKRVTGRRSFLIGDAAAQTKPFTGGGIRYGMTAADHAAREIDPEDPATLGEYERAWRDDLRQEIRLGHAVRAGYSAPEPIQKAGMKAFEGEIGVHMDRPTTLFSREQLAALFSRSLEHHHHHH | soluble |
| MYEQACTTILVGKKATVDGSTMIARNDDTFMPITPQKFIVHPAVHGRNETLTSGKNGFTAPLPADGYRYQAVPNIEVAEKGVFEENGFNEKNVGVSSTESVYGNEHTLTFDPFVPNGLAEDSLPTMLTPFIDSARGGVEYLGQLIAKYGSPEGNGVLFNDKDDVWYMEIVTGHHWVAQRIPDDAYAVAANQVAIQWVDFDDPDNFMWSDGIQEFVAEHHLNPDKEGFNFRHIFGTDNEKDRHYNTPRVWYGQRYFNPEIEQDPQSSELPFICHAAKKISVADVEFVLGSHYNETKYDPFLNTPEAKKFRPISMNRTQNSHVMQVRNDVPAEQSAIMWMTFGVPAFAPYLPFHANVSETDPSFANTPLKHDMNSAYWLYRTLSMIVESHYADFVQDDIDYLKECRIELGQFVAATDEQAAKLSGDELTAFLTEQDKVMVAKMRDKAQALIGQLVTKGLTLSKLTYNVDINLLEHHHHHH | not soluble |
| MYETQVQELSPEEAKRLYDQGVPFFDVREVEEYAQARIPGARLLPLSEFMARYGEIPKDTPVVLYCRTGNRSWQAAAWLSAQGYRVYNLEGGIVRWYRAGLPVDTTPMEAAYRATPYQEVGPEEAKALLEEAFVVDVREAWEYGEGHVPGAVNIPLSTLPQRLAELPKDRPILLVCNSGNRSGVAAEFLVAQGFDGERVYNLEGGTYAWASRGLPLER | soluble |
| MYETYHSGWIECITGSMFSGKSEELIRRLRRGIYAKQKVVVFKPAIDDRYHKEKVVSHNGNAIEAINISKASEIMTHNLTNVDVIGIDEVQFFDDEIVSIVEKLSADGHRVIVAGLDMDFRGEPFEPMPKLMAVSEQVTKLQAVCAVCGSSSSRTQRLINGKPAKIDDPIILVGANESYEPRCRAHHIVAPSDNNKEEL | not soluble |
| MYGILCLSLRRIFQWHTYSMVRIHSLNTMNILTNLEFSFPILYSYETLNTMLRKQRRLYMPRTNYIDIMEKNHMEIPWHDYTNADSNALIANADLIEKASVIGRVGLIMLSCGTGAWRVRTSMNKLSKELGVTCTVDVGLMSIEFNCFDGNDCVSQSLSIANTGVNTSKLYRMEQFVDNFPNEEAHLTGEMIHKRLDEIEQIHTLYSPVKLG | not soluble |
| MYIGIDLGTSGVKVILLNEQGEVVASQTEKLTVSRPHPLWSEQDPEQWWQATDRAMKALGDQHSLQDVKALGIAGQMHGATLLDAQQRVLRPAILWNDGRCAQECTLLEARVPQSRVITGNLMMPGFTAPKLLWVQRHEPEIFRQIDKVLLPKDYLRLRMTGEFASDMSDAAGTMWLDVAKRDWSDVMLQACDLSRDQMPALYEGSEITGALLPEVAKAWGMATVPVVAGGGDNAAGAVGVGMVDANQAMLSLGTSGVYFAVSEGFLSKPESAVHSFCHALPQRWHLMSVMLSAASCLDWAAKLTGLCNVPALIAAAQQADESAEPVWFLPYLSGERTPHNNPQAKGVFFGLTHQHGPNELARAVLEGVGYALADGMDVVHACGIKPQSVTLIGGGARSEYWRQMLADISGQQLDYRTGGDVGPALGAARLAQIAANPEKSLIELLPQLPLEQSHLPDAQRYAAYQPRRETFRRLYQQLLPLMA | not soluble |
| MYIQVLGSAAGGGFPQWNCNCVNCKGYRDGTLKATARTQSSIALSDDGVHWILCNASPDIRAQLQAFAPMQPARALRDTGINAIVLLDSQIDHTTGLLSLREGCPHQVWCTDMVHQDLTTGFPLFNMLSHWNGGLQWNRIELEGSFVIDACPNLKFTPFPLRSAAPPYSPHRFDPHPGDNLGLMVEDTRTGGKLFYAPGLGQVDEKLLAMMHGADCLLVDGTLWEDDEMQRRGVGTRTGREMGHLAQNGPGGMLEVLDGFPRQRKVLIHINNTNPILDENSPERAEVLRRGVEVAFDGMSIELLEHHHHHH | soluble |
| MYIVIMGAGRIGTLVARMLESEGHDVAIIEMNRERAREISEYISGLVIEGDATDQKVLENANIKNANAFAALTGKDDANILACILAKHLNPNIMTILRITDPGKKKIFEDVKELKTYFDIVVSPEDIAANYIFRTLVTPGFNRVLLPREGAEIIQFQIDEDCEVAGKPVKELNLPKDSLIIAVYDEKGNLTIPSGDTIIPKKGQVIIFAKNSALQEVKKIMEKKKKEQ | soluble |
| MYIVNSNKSRGSSVERYIVSRLRDKGFAVIRAPASGSKRKDHVPDIIALKSGVIILIEVKSRKNGQKIYIEKEQAEGIREFAKRSGGELFLGVKLPKMLRFIKFDMLRQTEGGNYAIDLETVEKGMELEDLVRYVESKISRTLDSFL | soluble |
| MYKATVIIKLKKGVLNPEGRTIQRALNFLGFNNVKEVQTYKMIDIIMEGENEEKVKEEVEEMCKKLLANPVIHDYEIKVEKIE | soluble |
| MYKLSGKAVEDFRGIYDYTLGKFGDEQADRYTDSLGTFLDTLSQMPEIGQDYDAIPEVKKIAFRFHTVYYVIRVDDILIARILHQLMEPRRHW | soluble |
| MYKPKNINSVLTFYKDQIQLVVSDDQNQFNILFYQTIDNDGFYSKQQLKNKLRLKLALNQLVDQANYFLGFKLEKVVVVLAELIDDLKIHNFKSEIFFTGYDFDHKAMIKKEKQRFCEQNNQLTVMDTMVLNYHDVINNKITKSFAFNKSYVANLVAYSSKSNLIGELKFFLKRNVNLKVKKIISHHLALANSLSKKQNNMFVYLGQKTTELMLFMDNALVDVITNQFGKNHFIDIPANQENKPLLEFLVDNTTKIGDCYSLGMTYTDGDSYKEIKALTIGDLMQTVSDKIKTLIDFINSGSLTFFNKFKTLPKLLYFYTRSKQITNLFQANVALINPQFKTVDIYKNKIQFISENYLLSCEAISLQITNRIKNQISFDFTNADNIQKPKPKKHFMILSKHLTKFVQRLVK | soluble |
| MYLACLAKFSQNVELRKMLFRTQDMYLVEASGNDAIWGNGIWKEDKRSDDVANWHGTNYLGEILDRIRGELIGKPEFAAEKEAVQLESLEQRIQMLMA | not soluble |
| MYMSSLQSTRERVLGTPRRRYKVLVAKMGLDGHDRGAKVVARALRDAGFEVVYTGLRQTPEQVAMAAVQEDVDVIGVSILNGAHLHLMKRLMAKLRELGADDIPVVLGGTIPIPDLEPLRSLGIREIFLPGTSLGEIIEKVRKLAEEKRMREEAEASEQVGQA | soluble |
| MYNDPRSHGLWEKTAPQPPVTPALQGDAVADVVVVGGGFTGQSAALHLAEGGLDVILLEAKEIGFGGAGRNVGLINGGMWVMPKELPDVLGETYGERLLDLLGDAPVLVRELVEKHGIPCEIEKNGTLHCAVGEKGLAEIRERCEQWSARGAPVRVLDADETASYIGSTAYSGALLDSRAGTIQPLAYVRGLAGAALKAGVRLHTASPVNETGRNGAKWVVKTPEGSVTAKWIVVATEAYSTGPWQIIREEQVYLPYFNFATRPLSDNLQKSILPGRQGCWDTKEILSSFRMDKAGRLVFGSVGALRGTGTAIHRAWAKRSLKRLFPQLGDTEFECEWYGQIGMTDNAVPRFHKFAENVIGFSGYNGRGIAPGTAFGKVIAQHILGEIAEADLPLPVTEPKAQAFRAVKEAYYEAGAQIAHFAGERFLEHHHHHH | not soluble |
| MYNGIGLQTARGSGTNGYVQSNLSHLMQARRKIEYNGEDDLRKMEAELNRKPNEEIMDHNRKRQIEVKCTEFEMLLEDKGLDDEDIERKVGEYRKNLLKQLESGELNVDEELSTKESHARRRAAANNRDKMRNALGLGEDYVPGSSMAKMNKSDVVGAAMESELPQKDDKEKLLETLRLHRKSKKKQESSSSSSSSSSSSESSSEDEKHRKDRKKKEKKQKLKEMEKRREKLRQKERELLAVSDKVKKEEPAESSDEEDSRKDQRKPREDRRRSVERQDQREDRRDRRRSPEDPRERRRSPEDRTVRRRSPERRRQQRSPSVERRKSPQRRDERRRRHDSSENERRSTATASKKSRMDELEVKQEPPSDSEDYIAKTNLAPIRVEKSAEKVEKSRKSSSESSSGSSDSDSSSDSSSSSDSSSDSE | not soluble |
| MYNKDDVLKQADNIANKIKNLDTIKTYQQIEAQIHQNQTIKTKMDMLKKHQKQAVNFQNYGKQNALEQSEHTIQSIEAEINTLPIVEQFQTSQYEANQLLKMFVSTMETRLNDHNKAKHSDLEHHHHHH | not soluble |
| MYPQQTSAAVGARKMRVVGVVEETHDARSILVEPHPEHIDAFDYRPGQFLTVRVPDVGSGTARCYSLSSSPHVDSTMKFTVKRVAGGHGSNWLCDEIALGDELEVLPPAGTFTVRSLDQSVVLVAGGSGITPVIAIAKSILHAGTGTVLLVYANRDERSVIFGEQLRELGERFGSRFTVIHVLESVQGYLTAPAMSNLIRPFTDRAVYICGPEPLMKLVKAVCSAEGIAPSQVMTERFVSLSTDPFRNPVEDKPSTSDTGVEVSAQDEAAAGDCTVHVSLDGTERTVAWPRSKRLLDALLDAGVEAPFSCREGACSACVCSLTEGEVRLVRNEVLEADDLADGYILACQAEVVTDQISIKY | not soluble |
| MYPSIKETMRVQLSMEGSVNYHAFKCTGKGEGKPYEGTQSLNITITEGGPLPFAFDILSHAFQYGIKVFAKYPKEIPDFFKQSLPGGFSWERVSTYEDGGVLSATQETSLQGDCIICKVKVLGTNFPANGPVMQKKTCGWEPSTETVIPRDGGLLLRDTPALMLADGGHLSCFMETTYKSKKEVKLPELHFHHLRMEKLNISDDWKTVEQHESVVASYSQVPSKLGHN | soluble |
| MYQNILVPLDGSDNAYMALKHAVKLAQTFKSKLFLVNVIDITRLNAYSPAAYGGTLYTNLLKVAKDNSQDILDRGQQMASAAQVESLPIQVNSSPKASIATDIPKKYAIDLIVMGKSGTNAVSRILLGSTTAYVVQKAEVNVTVIN | not soluble |
| MYVNKQEIIKNIQKLSPKSPAEYIEKDGCFMLTCPENTYPSFFSQFQYSEIPPPGNLIPQNALEISPPTSLEEMGGASLSEYFGIICDDGVWKLTKYPNGITFNKDPPSYTNGSLNGYKTEIFTMNCY | not soluble |
